Experimental findings from a protein production outcome set (Wang et al. 2014) are described below.

The nature of this series: label from the status in PepcDB records.
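Further: failed if final PepcDB status was selected cloned or expressed and not failed if soluble or beyond.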

Take “MRNKLLFLALPLLFGLQASAQHTQAFQDTTLTDEQRVEHLLSILTLDEKINLLSTDLGVPRLNIPRCGHYEGLHGLTLGGPAMWGGRQRTEDGKVVPTDCPTTIFPQSYGLGSTWDTDLVQKVAEQAAEEARYYMQTTGNKRHALVMRAPNADLARDPRWGRTEESFGEDAFLTAQLTIASVRGLQGNHPRYWKTASLMKHFLANSNEDGRDSTSSDFDTRLFHEYYAYPFYKGITEGGSRAFMAAYNSWNGIPMSIHPCLEEITRKQWGNNGIICTDGGALKLLIEAHKSFPSFAEGAAAVVKATTGQFLDAYVPYVKEALEKGLLTEVDIDKAIRGNIFVALKLGLLDGDNSRNPYLSIGKNSTETPPFMTAEARRLAREVTAKSVVLLKNKKLLPLDAGKLRKIAVIGPYSDKIVQDWYSGTPPYETTILSGIRNAVKEGTEIIHAEDNRMGQAEKAAAAADVAIVCVGNHPYGTRADWKFSPVPSDGREAVDRKSLMLPDEDLVKLVLKANPNTILVLVSSFPYTINWSQEHVPAIVHITHCSQEQGNGLADVLFGKVNPAGRTVQTWVKDITDLPDIMDYDIRNGRTYMYHQGPVLYPFGYGLSYSDFTYEKIESVKQDKKNIRVTVSVKNTSGRDGEEVVQLYASYPDSKVERPSKQLRAFRRIPIKAGETRKVTLTVPKEELGYWNEGKQMFVVEPGTVKLLIGASSEDIRLEGKIRL”: the protein production entry is listed as “failed”.

Consider “MRNLIISAALVAASLFGMSAQAAEPIESGKQYVELTSAVPVAVPGKIEVIELFWYGCPHCYAFEPTINPWVEKLPSDVNFVRIPAMFGGPWDAHGQLFITLDTMGVEHKVHAAVFEAIQKGGKRLTDKNDMADFVATQGVNKDDFLKTFDSFAVKGKIAQYKELAKKYEVTGVPTMIVNGKYRFDLGSAGGPEKTLQVADQLIDKERAAAKAAK”, for which the protein production entry is listed as “failed”.

On to “MRNSCYTSSYRQPVSLVVEWVLIGGLAMQDKLHEIRVFENFQEELFETGHVIVTTEVVEKSLNYFGNAHGGYLFTLCDQVAGLVALSTGDYAVTLQSNINYLKAGHLSDQLKIEGLCVHNGKTTKLVEVLITNQEEKILTRATFTMYVTGSISE”, for which the protein production result is given as “failed”.

Consider “MRPAAARVLLGAFAFAVVADLASQALGSDTGHLLAKPLLMPLLAAYAAVRGGPRLLVVALLLGWAGDVLLLSDADPAFLAGMSSFAAGHVCYLVLFARHGRTRARGALLAGGYGLVLVTTVALLWPGLPAGLRVPVVGYSLLLTAMAYGATRLGPVAGLGGALFLLSDTLIATGVADWPQLPRPDFWIMLTYAAGQYLLVRGVTDTLGAPTAPAAAYGEVRSTTP”, for which the protein production entry is “failed”.

“MRPAPSIVEVVAAIIIGSDGSFLLARRPEGKPYAGYWEFPGGKVNPEESLLRALKRELLEELGIHVKHAYPWITRTFTYPHARVRLHFYRVVEWHGEPHPHEDQELSWQFADNVSVEPLLPANAPVLRALALPPVYGITNAAEWGPQIAAARIGHALQKGLRLVQLREKGMRSKALDAFAREVTALAHHYGARILVNSGTGNESLCQELDMDGIHFTSADLMNLSKRPDVEWCAASCHNAEELFRAEQLEMDFAVLAPVLPTLSHPDSPVLGWRKLARIIHGSAIPVYALGGLQSEDLAIAWEHGAHGIALMRRIEQVRGTGQKA”: the protein production result is “failed”.

“MRPKVSVALATYNGEKYIEEQLESIIKQTRAPDELVICDDCSNDETINIITKKIKNAHFDVKLVSNDKNIGYVQNFSKALEMSSGDIVFLCDQDDVWLSDKIEFIINKFNTRPDIQLLIHDVDYCKEDLTPIGQTKLQRMESNFDIESDYVVGMATAVRRSFLVHCLPVPSAPEVTHDEWLHDCARVLGCKGIVREVLALYRRHSLNVTAPSRLNVDFVTTRHYFGNESLAFLKLFRMETDLGSPDISPLVQWLDSRKMVLLDNGFSSEDRINTFIQYEEKRLRARNSRQSILRLDRWKRLFPIYDLYRSGGYHYYCGWKSALKDLLRTYALEHHHHHH”: the protein production result is reported as “not failed”.

Consider “MRPLAAILALPILEIALFVTIGGAIGLLATLLIIFGTAALGVFLLRRQGVEMQAALQMPRRMDPLALMADGAAVSLAAALLILPGFFTDTVGLLLLIPPVRRALIRRLGRNVQVRSTTWRGPVRDDAPIEADYHEVEPVRDPLAPPSQPPGSSGWTRH”, for which the protein production result was “failed”.

Regarding “MRPPLIERYRNLLPVSEKTPVISLLEGSTPLIPLKGPEEARKKGIRLYAKYEGLNPTGSFKDRGMTLAVSKAVEGGAQAVACASTGNTAASAAAYAARAGILAIVVLPAGYVALGKVAQSLVHGARIVQVEGNFDDALRLTQKLTEAFPVALVNSVNPHRLEGQKTLAFEVVDELGDAPHYHALPVGNAGNITAHWMGYKAYHALGKAKRLPRMLGFQAAGAAPLVLGRPVERPETLATAIRIGNPASWQGAVRAKEESGGVIEAVTDEEILFAYRYLAREEGIFCEPASAAAMAGVFKLLREGRLEPESTVVLTLTGHGLKDPATAERVAELPPPVPARLEAVAAAAGLL”, the protein production result is “not failed”.

Consider “MRPSAEALRDRPRCGIRPSMDYYDLGRHGRPVTTSSPEAQRWFDRGLVWTYAFHHEEAVACFEAAVAADPDCAMAHWGIAHALGPNYNKPWDAFDTEELTRTVDRTHAAVERAHALAGRATPAERALIDALRARYPQASAVEDCSVWNAPYADGMRAVYELAPDDLDVAALYADALMNLTPWQLWDLRTGLPAEGARTLAAKEVLDRALAAEGGRDHPGVVHLYIHLMEMSPTPEAALAVADRLRGLVPDAGHLLHMPSHLEVLCGDYRRVVSDNEAAIAADEKCLARSGAMNFYTLYRAHNHHFKIYGAMFLGRYEVALDAAARLEASVPEALLRVESPPMADWLEAFLAMRVHVLIRFGRWTDILALPLPDDPRLYCVTTAMLHYARGVALSATGRVAEAETERDLFRAAVDRVPGSRTLFNNTCADILAIASAMLDGELEYRRGNHTAAFAALERSVELDDNLPYDEPWGWMQPTRHAYGALLLEQGRTAEAEAVYRADLGLDDTLPRPLQHPNNVWALHGLHECLVRLGRAGEVRIVAQQLRFAAALADVPVEASCFCRLGTAPAAGGDAGCCATGQ”, for which the protein production result is “failed”.

For “MRPSAIVLAGGKEAWAERFGVGSKALVPYRGRPMVEWVLEALYAAGLSPVYVGENPGLVPAPALTLPDRGGLLENLEQALEHVEGRVLVATGDIPHLTEEAVRFVLDKAPEAALVYPIVPKEAVEARFPRTKRTYARLREGTFTGGNLLLLDKSLFRKALPLARRVVALRKRPLALARLVGWDVLLKLLLGRLSLAEVEARAQRILGVEARALVTPYPEVGVDVDREEDLVS”, the protein production entry is reported as “not failed”.

On to “MRPTARNLAPLLAVLCAPPALLAGCGHAEPRPRAAAQDRDGLSALWSYYRYTHVQGGRVAALDEGGVTTSEGQGYAMLRAVWMDDRATLDAVWRWTRENLAVREDRLLAWRWLDGKVKDRNAATDADQDVALALVLASRRFGDPRYLEAARPLLADIWAREVIRAGGRWLPTGGNWAPAERYPTLHVAYLAPYAYQVFADVDPERPWAELVESSYQVLRFLMIEKGLALPPERIWVDPRTGELLLARPGGQPDAFGYDAVPVYWRVALDARWFGRRGEAELRARLLRFPAEAFRDEGRLRERYTTSGRPLSELDGLPHLASVQALAQLEDPELARAMRASKLDALFDRALSGEATPYYLHNWLWFGRALEAGLLRRFDEPLAFLSSLDWGAFRDRFPLLPVALAVVLAPLARRLWPARAALVALALGLSIRYLAWRAGSTLNFVEPLGPALSLALLAAEAYALSTVALLVVQVGLRHRARPPEPPLGAGEPHPSVDVMVPIYSEPLDILDKTLAACAALRYPRKTIVVCDDSHREEVARLAAEHGARYLAGPRRHAKAGNLNAALARTDGELVVVFDTDHVPTAAFLERTVPCFRDPRLGVVQTPHHFYNPDVFQRALGAPASVPNEADLFNHAIQGGRDRWGGAFFVGSGAVFRREALASVGGFHLLSITEDIHTSQKLHAGGWRTRFVDEDLAAGLSAEDLASYVVQRRRWMLGCLQIFFRDNPLLQRGLPLRHRLGYLASLWYFFFPLARLVFFATPLAYLLFHLHPLFAELPVLLAYLVPHLVAAPLAASALVPGWPRLLWGGLYEGAVAFPLARATLDLLLPRRLGFKVTPKGVRSERRRFDLRTSAFTLAAAAVGLLAIAKGAAELWAFGIEVEAYAFNLAWAGANLVSVLLALLVAWERPQRREDERIRRRVPVRLEAPGLSLEASTLDLARGGAAVALPPGAALPAEVEVTFDGPEGLRLRARVAYVEPVDGAPRAGLAFQGVGAAEARALVRIAFSADGAHAGAHDGRSRWQAAMAWHLLAGLWRAVRPLRPRRRLGARRRTLRPLRLCGAGRACRALAVDASAGGLGLVAAGARGAIPAPGTALALLAPEGIGWARVVHARRILPGLWRLGLALQAEPVPGAEPHAYLAA”, for which the protein production entry is given as “failed”.
